Read-outs that look alike come from different tables or passages of the source.

The text below walks through data of patent publication EP4480965A1, “TRANSFERRIN RECEPTOR-BINDING MOLECULES, CONJUGATES THEREOF AND THEIR USES TO PREVENT OR TREAT CNS DISEASES” (Vect-Horus, priority 2023, dated 2024).

Assay [1] relates to GFP. On the procedure:
Second, the intrinsic silencing activity of the VHH-siGFPst1 bioconjugate was assessed in living CHO cell lines stably expressing the TfR fused to EGFP (CHO-hTfR-EGFP cells) by transfection of the conjugate at 25 nM using Dharmafect 1 (Dharmacon) for direct delivery into the cytosol. The total cellular amount of GFP was quantified 72 hours post-transfection using flow cytometry. […] In another series of experiments, the VHH A-siGFPst1 conjugate was transfected on CHO-hTfR-EGFP cells at concentrations ranging from 10 nM to 1 pM and the total cellular amount of GFP was quantified 120 hours post-transfection using flow cytometry.

In another assay the target is T1, human TfR (Homo sapiens, UniProt P02786).
T1 construct: expressed in transfected cells
T1 sequence (P02786 whole entry): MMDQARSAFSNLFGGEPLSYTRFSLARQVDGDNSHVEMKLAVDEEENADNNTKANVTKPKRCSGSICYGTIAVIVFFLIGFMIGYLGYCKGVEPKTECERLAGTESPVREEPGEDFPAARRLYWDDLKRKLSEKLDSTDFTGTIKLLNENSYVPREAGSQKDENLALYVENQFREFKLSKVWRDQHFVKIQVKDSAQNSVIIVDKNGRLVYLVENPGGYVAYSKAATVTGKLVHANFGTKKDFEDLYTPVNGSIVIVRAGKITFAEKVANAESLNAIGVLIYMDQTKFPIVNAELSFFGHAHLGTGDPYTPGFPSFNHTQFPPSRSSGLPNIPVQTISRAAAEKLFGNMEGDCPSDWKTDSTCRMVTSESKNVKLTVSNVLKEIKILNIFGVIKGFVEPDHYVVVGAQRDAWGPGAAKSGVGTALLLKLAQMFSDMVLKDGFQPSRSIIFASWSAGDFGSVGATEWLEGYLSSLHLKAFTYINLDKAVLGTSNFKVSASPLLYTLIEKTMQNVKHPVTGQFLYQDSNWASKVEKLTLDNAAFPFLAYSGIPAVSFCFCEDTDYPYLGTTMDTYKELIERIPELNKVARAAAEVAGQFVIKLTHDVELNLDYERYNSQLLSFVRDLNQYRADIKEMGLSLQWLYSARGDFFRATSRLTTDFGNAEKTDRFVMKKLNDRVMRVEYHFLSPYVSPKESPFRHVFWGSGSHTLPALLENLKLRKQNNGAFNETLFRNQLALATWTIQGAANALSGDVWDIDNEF
The assay is described as follows: Flow cytometry apparent Kd (Kd app) on CHO cells expressing hTfR fused to EGFP. Particulars: bioconjugates (siGFPst1, NODAGA, 68Ga), 2 µM to 30 pM, 1 hr at 4°C. The assay is classed as binding. How it is done:
After one wash in PBS/BSA 2%, cells were incubated for 1 hr with an anti-6His tag antibody (mouse), washed twice with PBS/BSA 2%, and incubated for 45 min with an Alexa647-conjugated anti-mouse secondary antibody. […] No labeling of the CHO WT control cells was detected with all the tested VHHs (not shown).
After one wash in PBS/BSA 2%, cells were incubated for 1 hr with an anti-6His tag antibody (mouse), washed twice with PBS/BSA 2%, and incubated for 45 min with an Alexa647-conjugated anti-mouse secondary antibody. […] Fluorescence levels were assessed using an Attune NxT Flow Cytometer (Thermo Fisher Scientific). […] No labeling of the CHO WT control cells was detected with all the tested VHHs (not shown).
The binding properties of VHHs with affinity for the TfR from different species (i.e., human (h), mouse (m) and rhesus monkey (rh)) were tested using flow cytometry, and apparent affinities (Kd app) were determined. […] CHO cell lines expressing the hTfR, mTfR or rhTfR fused to EGFP were saturated with PBS/BSA 2% solution during 30 min to avoid nonspecific binding, followed by incubation with purified VHHs at increasing concentrations for 1 hr. After one wash in PBS/BSA 2%, cells were incubated for 1 hr with an anti-6His tag antibody (mouse), washed twice with PBS/BSA 2%, and incubated for 1 hr with an Alexa647-conjugated anti-mouse secondary antibody. After two last washes in PBS/BSA 2%, cells were fixed by incubation for 15 min with PBS/PFA 2%, washed once with PBS and finally resuspended in PBS. Fluorescence levels were assessed using an Attune NxT flow cytometer (Thermo Fisher Scientific).
(In general: Flow cytometry measures light scatter and fluorescence of single cells or particles in a stream.)

For assay [2], the system named is GFP. Conditions: for reduction of GFP protein levels: 120 hrs at 37°C. On the procedure:
Third, the ability of the VHH A, once conjugated to siGFPst1, to trigger hTfR-mediated endocytosis and subsequent delivery into the cytosol of target cells in pharmacological amounts was assessed. The VHH A-siGFPst1 or the control VHH Z-siGFPst1 bioconjugates were incubated on CHO-hTfR-GFP cells at 1 µM during 120 hrs at 37°C to allow free uptake, delivery to the cytosol and gene silencing to take place at the mRNA transcript and protein levels. […] Next, the VHH A-siGFPst1 bioconjugate was incubated on CHO-hTfR-GFP cells at concentrations ranging from 3 µM to 10 pM during 120 hrs.
Fifth, the TfR-mediated GFP-silencing effect of the VHH A-siGFPst1 bioconjugate was evaluated using a pulse-chase procedure. CHO-hTfR-GFP cells were exposed to VHH A-siGFPst1 at concentrations ranging from 300 nM to 1 pM during a short duration (6 hours), followed by chase in ligand-free medium up to a total duration of 120 hrs.
Finally, the ability of the VHH B to trigger hTfR-mediated endocytosis and subsequent gene silencing was evaluated by incubating the VHH B-siGFPst1 bioconjugate on CHO-hTfR-GFP cells at 30 nM during 120 hrs. […] To the best of our knowledge, receptor-mediated hepatocyte uptake through the asialoglycoprotein receptor (ASGPR) using triantennary GalNAc as a targeting ligand is the only ligand/receptor system able to trigger specific and efficient gene silencing at nanomolar concentrations. However, the use of this system for in vivo therapeutic applications with therapeutic nucleic acids is restricted to hepatic targets, since ASGPR is expressed in vivo exclusively in hepatocytes.

B1: VHH A-siGFPst1: siGFPst1 conjugated to a tagged VHH A (conjugate)
VHH: EVQLVESGGGVVQPGGSLKLSCVASGTDFSINFIRWYRQAPGKQREFVAGFTATGNTNYADSMKGRFTISRDNTKNAVYLQIDSLKPEDTAVYYCYMLDKWGQGTQVTVSSAAAEQKLISEEDLNGAAHHHHHHGS
The term IC50 denotes the midpoint of a concentration-inhibition curve. For the molecule B1, the IC50 with GFP [1] (read-out: IC50 (reduction of GFP protein levels), transfection 10 nM to 1 pM, 120 hours) is 50.4 pM. In addition, the maximum silencing efficiency in the assay on GFP [1] (transfection 10 nM to 1 pM, 120 hours) is reported as -90.2%; in the assay with GFP [2] (free uptake, continuous 120 hrs), -61.6 ± 2.9%. Moreover, the “reduction of GFP protein levels” value is on record as “ca. 85%” in the assay on GFP [1] (transfection at 25 nM, 72 hours post-transfection); “ca. 60%” in the assay on GFP [2] (free uptake, 30 nM); “ca. -70%” in the assay with GFP [2] (free uptake, 1 µM). In addition, in the assay with human TfR, the “apparent hTfR-binding affinity (Kd app)” value is listed as “low nanomolar range”. Moreover, the “GFP protein levels, % of the control levels” value is 85% with GFP [2] (30 nM with 100X excess of free VHH A, 120 hrs) and 96% in the assay on GFP [2] (30 nM with 100X excess of free VHH B, 120 hrs). Further, the “competition of the silencing effect” value with GFP [2] (30 nM with 100X excess of irrelevant VHH Z, 120 hrs) is recorded as “no competition”.

B2: VHH A-NODAGA: VHH A-azide reacted with NODAGA-BCN (conjugate)
VHH: EVQLVESGGGVVQPGGSLKLSCVASGTDFSINFIRWYRQAPGKQREFVAGFTATGNTNYADSMKGRFTISRDNTKNAVYLQIDSLKPEDTAVYYCYMLDKWGQGTQVTVSSAAAEQKLISEEDLNGAAHHHHHHGSAAAHHHHHHGGGLQR
As for B2, the “apparent hTfR-binding affinity (Kd app)” value in the assay with human TfR is on record as “low nanomolar range”.

B3: VHH A-68Ga: VHH A-NODAGA radiolabeled using 68Ga chloride (conjugate)
VHH: B2 VHH
In the case of B3, the “apparent hTfR-binding affinity (Kd app)” value with human TfR is reported as “low nanomolar range”.

B4: VHH B-siGFPst1: siGFPst1 conjugated to VHH B (conjugate)
VHH: EVQLVESGGGVVQPGGSLRLSCAASGEIFSINFMRWYRQAPGKQREWVAGFTRDGSTNYPDSAKGRFTISRDNAKNTVYLQIDSLKPEDTAVYYCYMLDTWGQGTQVTVSSAAAEQKLISEEDLNGAAHHHHHHGS
Take B4: the “apparent hTfR-binding affinity (Kd app)” value in the assay with human TfR was “low nanomolar range”. Besides, the “reduction of GFP protein levels” value in the assay on GFP [2] (free uptake, 30 nM) is “ca. -60%”.
